Consider one protein from article PMC6265302, “Widespread bacterial lysine degradation proceeding via glutarate and L-2-hydroxyglutarate” (Nature Communications, 2018).

This data set deals with the molecule itself. The data set can be described thus: crystal structure; CsiD at 13 mg/mL, sitting drop vapour diffusion, 18 °C; apo and with glutarate, succinate or N-oxalylglycine; symmetry P42(1)2, two copies in the asymmetric unit, tetramer generated by crystallographic symmetry.

B1: CsiD (carbon starvation induced protein D), glutarate hydroxylase (enzyme, Escherichia coli, UniProt P76621 1-325, looked up)
chain: MNALTAVQNNAVDSGQDYSGFTLTPSAQSPRLLELTFTEQTTKQFLEQVAEWPVQALEYKSFLRFRVAKILDDLCANQLQPLLLKTLLNRAEGALLINAVGVDDVKQADEMVKLATAVAHLIGRSNFDAMSGQYYARFVVKNVDNSDSYLRQPHRVMELHNDGTYVEEITDYVLMMKIDEQNMQGGNSLLLHLDDWEHLDNYFRHPLARRPMRFAAPPSKNVSKDVFHPVFDVDQQGRPVMRYIDQFVQPKDFEEGVWLSELSDAIETSKGILSVPVPVGKFLLINNLFWLHGRDRFTPHPDLRRELMRQRGYFAYASNHYQTHQ
notes: CsiD of Escherichia coli, ORF amplified from E. coli BW25113 and inserted into pET28a; crystals were apo or held glutarate, succinate or N-oxalylglycine; also called glutarate-2-hydroxylase; G-2-H; source: E. coli BL21 (DE3), purified (Ni-NTA)
For B1, the “stoichiometry N” value turned out to be 4.

As usually defined, the stoichiometry N is the number of molecules, sites or subunits per partner or assembly.
